Laboratory results as given in PMC6328559.

Assays:
[1] = biological target: SLy1 SAM domain construct SAMwt (SLy1 residues P254-E321 with an N-terminal glycine from the tag) (mouse) (UniProt Q8K352); test: AUC; sedimentation equilibrium, 30 °C, standard buffer (50 mM potassium phosphate, 20 mM NaCl, 0.1 mM EDTA, pH 6.4) without NaN3; three loading concentrations (SAMwt 60, 120, 300 µM; SAMlg 31, 64, 98 µM) at several speeds; global fit to a monomer-dimer equilibrium; dimer to monomers
[2] = biological target: SLy1 SAM domain construct SAMwt (SLy1 residues P254-E321 with an N-terminal glycine from the tag) (mouse) (UniProt Q8K352); test: MST; Alexa Fluor 488 labelled protein kept constant (SAMwt 70 nM, SAMlg 60 nM), total protein varied (SAMwt 1.1-824 µM, SAMlg 0.2-250 µM); standard buffer pH 6.4, room temperature; fit to a monomer-dimer equilibrium; dimer to monomers
[3] = biological target: TEL SAM (Homo sapiens) (UniProt P41212); conditions: cited from earlier work
[4] = biological target: Yan SAM (Drosophila melanogaster) (UniProt Q01842); conditions: cited from earlier work

Sequence of Yan SAM (Q01842 33-117): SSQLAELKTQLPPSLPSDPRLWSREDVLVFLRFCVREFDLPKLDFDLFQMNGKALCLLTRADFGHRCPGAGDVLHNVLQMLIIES
Sequence of TEL SAM (P41212 40-124): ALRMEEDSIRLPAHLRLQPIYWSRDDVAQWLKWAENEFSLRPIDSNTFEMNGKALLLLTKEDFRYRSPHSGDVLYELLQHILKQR

Substance: SLy1 SAM domain construct SAMwt (SLy1 residues P254-E321 with an N-terminal glycine from the tag) (from UniProt Q8K352 254-321) (domain or fragment)
- Ka [1]: 8500 M⁻¹
- Kd [1]: 117 µM
- stoichiometry N [1]: 2
- Kd [2]: 153 µM

Substance: TEL SAM (from UniProt P41212)
- Kd [3]: 0.0017 µM

Substance: Yan SAM (from UniProt Q01842)
- Kd [4]: 11 µM
